# Paper PMC3320615, “β-Microseminoprotein Endows Post Coital Seminal Plasma with Potent Candidacidal Activity by a Calcium- and pH-Dependent Mechanism” (PLoS Pathogens, 2012)
# Experiments:
# [1] = tested on: Candida albicans ATCC 90028; experiment: CFU assay with C. albicans; format: cell-based; conditions: for Estimate (difference between means of log values): control - treatment, pH 4
# Summary of the method: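 About 4×10^3–10^4 CFU of C. albicans (ATCC 90028 unless stated) exposed to test substance in 10 mM Tris, 5 mM glucose at pH 7.4 or pH 4 for 4 h at 37 °C. Survivors counted as colonies after 2 days at 30 °C; log counts compared with control.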
# E. coli (strain 37.4) = experiment: Antibacterial CFU assay; format: cell-based; conditions: purified MSP 10 µM + 20 µM EDTA or recombinant dialyzed MSP 10 µM + 10 µM EDTA; low and neutral pH; data not shown
# Method: (§1) E. coli (strain 37.4), S. aureus (strain 5120), S. pyogenes (M5 Manfredo), S. agalactiae (SB1), and E. faecalis (strain 2374) were grown in THY medium (Todd Hewitt with addition of yeast) and on THY agar plates at 37°C with 5% (v/v) CO2. Candida albicans was grown over night, washed, and resuspended in 10 mM Tris, 5 mM glucose, pH 7.4 or pH 4. Approximately 4×10^3 to 10^4 CFU of C. albicans were incubated with the test substance in low or neutral pH buffer for 4 h at 37°C. After incubation, the suspension was diluted and plated. Colonies were counted after two days incubation of the plates at 30°C. Bacteria from overnight cultures were inoculated in fresh medium and grown for 3 h, washed in 10 mM Tris, 5 mM glucose pH 7.4. Approximately 8×10^4 CFU were incubated with sample in 10 mM Tris, 5 mM glucose pH 7.4 or pH 4 for 1 h at 37°C, diluted, plated and incubated over night at 37°C and the colonies counted.
# [2] = tested on: E. faecalis (strain 2374); experiment: Antibacterial CFU assay; format: cell-based; conditions: purified MSP 10 µM + 20 µM EDTA or recombinant dialyzed MSP 10 µM + 10 µM EDTA; low and neutral pH; data not shown
# Method: as §1
# S. agalactiae (SB1) = experiment: Antibacterial CFU assay; format: cell-based; conditions: purified MSP 10 µM + 20 µM EDTA or recombinant dialyzed MSP 10 µM + 10 µM EDTA; neutral pH; data not shown
# Method: as §1
# S. aureus (strain 5120) = experiment: Antibacterial CFU assay; format: cell-based; conditions: purified MSP 10 µM + 20 µM EDTA or recombinant dialyzed MSP 10 µM + 10 µM EDTA; neutral pH; data not shown
# Method: as §1
# [3] = tested on: S. pyogenes (M5 Manfredo); experiment: Antibacterial CFU assay; format: cell-based; conditions: purified MSP 10 µM + 20 µM EDTA or recombinant dialyzed MSP 10 µM + 10 µM EDTA; neutral pH; data not shown
# Method: as §1
# C. albicans = experiment: Scanning electron microscopy of C. albicans; format: cell-based, Candida albicans; conditions: 5 h; 20 µM MSP with 40 µM EDTA, or EDTA alone
# Method: Specimens were washed with cacodylate buffer, and dehydrated with an ascending ethanol series from 50% (v/v) to absolute ethanol. The specimens were then subjected to critical-point drying in carbon dioxide, with absolute ethanol as intermediate solvent, mounted on aluminum holders, sputtered with 30 nm palladium/gold and examined in a JEOL JSM-350 scanning electron microscope. A small volume from each of the samples was also plated to check antifungal activity.
# [4] = target: the molecule itself; experiment: SEC; HiPrep 16/60 Sephacryl S 100 column; 50 mM Tris, 150 mM NaCl, pH 7.5, with 1 mM calcium or 1 mM EDTA; native MSP
molecule,measurement,setting,value
"β-microseminoprotein (natural protein, human, UniProt P08118 21-114, looked up, human β-microseminoprotein (MSP, PSP94), native protein purified from seminal plasma; also called MSP; PSP94) SCYFIPNEGVPGDSTRKCMDLKGNKHPINSEWQTDNCETCTCYETEISCCTLVSTPVGYDKDNCQRIFKKEDCKYIVVEKKDPKKTCSVSEWII",Estimate (difference between means of log values),"[1]; 25 µM MSP + 25 µM EDTA + 0.5 mM calcium, experiment 1",-0.9947
same,Estimate (difference between means of log values),"[1]; 25 µM MSP + 25 µM EDTA + 0.5 mM calcium, experiment 2",-0.9876
same,Estimate (difference between means of log values),"[1]; 25 µM MSP + 25 µM EDTA + 0.5 mM calcium, experiment 3",-1.0805
same,Estimate (difference between means of log values),"[1]; 25 µM MSP + 25 µM EDTA + 0.5 mM magnesium, experiment 1",1.9399
same,Estimate (difference between means of log values),"[1]; 25 µM MSP + 25 µM EDTA + 0.5 mM magnesium, experiment 2",2.1624
same,Estimate (difference between means of log values),"[1]; 25 µM MSP + 25 µM EDTA + 0.5 mM magnesium, experiment 3",1.6349
same,Estimate (difference between means of log values),"[1]; 25 µM MSP + 25 µM EDTA, experiment 1",4.1638
same,Estimate (difference between means of log values),"[1]; 25 µM MSP + 25 µM EDTA, experiment 2",4.7089
same,Estimate (difference between means of log values),"[1]; 25 µM MSP + 25 µM EDTA, experiment 3",4.1911
same,Estimate (difference between means of log values),"[1]; 25 µM, experiment 1",-0.06377
same,Estimate (difference between means of log values),"[1]; 25 µM, experiment 2",-0.4481
same,Estimate (difference between means of log values),"[1]; 25 µM, experiment 3",-0.4892
same,Fungicidal activity in CFU assay,[1]; native MSP 10 µM + 20 µM EDTA or recombinant dialyzed MSP 10 µM + 10 µM EDTA,prominent fungicidal activity
same,Candidacidal activity in CFU assay,"[1]; neutral and acidic pH, without EDTA",no candidacidal activity
same,Antibacterial activity in CFU assay,E. coli (strain 37.4),no antibacterial activity
same,Antibacterial activity in CFU assay,[2],no antibacterial activity
same,Antibacterial activity in CFU assay,S. agalactiae (SB1),no antibacterial activity
same,Antibacterial activity in CFU assay,S. aureus (strain 5120),no antibacterial activity
same,Antibacterial activity in CFU assay,[3],no antibacterial activity
same,Effect on C. albicans by scanning electron microscopy,C. albicans,aggregated with disrupted membranes causing cell content leakage
same,stoichiometry N,[4],2
